The record followed here is patent US20260242735A1 (UNIVERSIT T BASEL, published 2026).

Assay [1] addresses human CD33 Q26A (human, UniProt P20138 18-364). The experiment in a line: flow cytometry, alanine scan.
Experimental: (§1) An alanine scan on human CD33 was performed to the determine the residues on CD33 that are involved in binding to the antibodies investigated. […] Briefly, a mutation library of CD33 was created by high-throughput, site-directed mutagenesis. Each residue was individually mutated to alanine, with alanine codons mutated to serine. The mutant library was arrayed in 384-well microplates and transiently transfected into HEK293-T. Following transfection, cells were incubated with the indicated antibodies (IgG or Fab) at concentrations pre-determined using an independent immunofluorescence titration curve on wild type CD33. […] Binding of each antibody to each mutant clone was determined in duplicates. For each point, background fluorescence was subtracted from the raw data, which were then normalized to antibody reactivity with wild type CD33.
(§2) Critical residues for antibody binding (outlined in dark grey) were residues whose mutations led to a binding of the test Abs of less than 20%. Additional secondary residues (outlined in light grey) were identified that led to a binding of the test Abs of between 20 and 40% as compared to the wild type CD33.
In assay [2] the target is human CD33 F21A (human, UniProt P20138 18-364). Kind of assay: flow cytometry, alanine scan. (Flow cytometry measures light scatter and fluorescence of single cells or particles in a stream.)
Experimental: as §1, §2
In assay [3] the target is human CD33 S28A (human, UniProt P20138 18-364). The experiment in a line: flow cytometry, alanine scan.
Experimental: as §1, §2
The target of assay [4] is human CD33 T42A (human, UniProt P20138 18-364). The experiment in a line: flow cytometry, alanine scan.
Experimental: as §1, §2
The target of assay [5] is human CD33 H45A (human, UniProt P20138 18-364). The experiment in a line: flow cytometry, alanine scan.
Experimental: as §1, §2
Assay [6] concerns the target human CD33 F43A (human, UniProt P20138 18-364). Kind of assay: flow cytometry, alanine scan.
Experimental: as §1, §2
In assay [7] the target is human CD33 G34A (human, UniProt P20138 18-364). The experiment in a line: flow cytometry, alanine scan.
Experimental: as §1, §2
Assay [8] has as its target human CD33 L38A (human, UniProt P20138 18-364). Kind of assay: flow cytometry, alanine scan.
Experimental: as §1, §2
Assay [9] concerns the target human CD33 P40A (human, UniProt P20138 18-364). The experiment in a line: flow cytometry, alanine scan.
Experimental: as §1, §2
Assay [10] deals with human CD33 Q32A (human, UniProt P20138 18-364). The experiment in a line: flow cytometry, alanine scan.
Experimental: as §1, §2
For assay [11], the target named is human CD33 V29A (human, UniProt P20138 18-364). Kind of assay: flow cytometry, alanine scan.
Experimental: as §1, §2
The target in assay [12] is human CD33 N20A (human, UniProt P20138 18-364). Kind of assay: flow cytometry, alanine scan.
Experimental: as §1, §2
The target of assay [13] is human CD33 D18A (human, UniProt P20138 19-364). Kind of assay: flow cytometry, alanine scan.
Experimental: as §1, §2
Assay [14] deals with human CD33 F44A (human, UniProt P20138 18-364). The experiment in a line: flow cytometry, alanine scan.
Experimental: as §1, §2
In assay [15] the target is human CD33 C36A (human, UniProt P20138 18-364). Kind of assay: flow cytometry, alanine scan.
Experimental: as §1, §2
Assay [16] has as its target human CD33 C41A (human, UniProt P20138 18-364). The experiment in a line: flow cytometry, alanine scan.
Experimental: as §1, §2
In assay [17] the target is human CD33 T30A (human, UniProt P20138 18-364). The experiment in a line: flow cytometry, alanine scan.
Experimental: as §1, §2
Assay [18] addresses human CD33 V37A (human, UniProt P20138 18-364). Kind of assay: flow cytometry, alanine scan.
Experimental: as §1, §2
The target in assay [19] is human CD33 V39A (human, UniProt P20138 18-364). The experiment in a line: flow cytometry, alanine scan.
Experimental: as §1, §2
Assay [20] has as its target human CD33 W22A (human, UniProt P20138 18-364). Kind of assay: flow cytometry, alanine scan.
Experimental: as §1, §2
Assay [21] concerns the target human CD33 E27A (human, UniProt P20138 18-364). The experiment in a line: flow cytometry, alanine scan.
Experimental: as §1, §2
For assay [22], the target named is human CD33 L35A (human, UniProt P20138 18-364). The experiment in a line: flow cytometry, alanine scan.
Experimental: as §1, §2
Assay [23] addresses human CD33 V31A (human, UniProt P20138 18-364). Kind of assay: flow cytometry, alanine scan.
Experimental: as §1, §2
The target in assay [24] is human CD33 E33A (human, UniProt P20138 18-364). Kind of assay: flow cytometry, alanine scan.
Experimental: as §1, §2
The target in assay [25] is human CD33 P19A (human, UniProt P20138 18-364). Kind of assay: flow cytometry, alanine scan.
Experimental: as §1, §2
For assay [26], the target named is human CD33 Q24A (human, UniProt P20138 18-364). Kind of assay: flow cytometry, alanine scan.
Experimental: as §1, §2
Assay [27] deals with human CD33 L23A (human, UniProt P20138 18-364). The experiment in a line: flow cytometry, alanine scan.
Experimental: as §1, §2
Assay [28] addresses human CD33 V25A (human, UniProt P20138 18-364). Kind of assay: flow cytometry, alanine scan.
Experimental: as §1, §2
The target in assay [29] is T1, human CD33 Q364A (human, UniProt P20138 18-363).
T1 construct: Alanine-scan mutant clone of CD33 transiently transfected into HEK293-T cells
Kind of assay: alanine scan; flow cytometry, HEK293-T cells expressing the mutant; normalised to WT CD33.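 Also: antibodies (IgG or Fab) at doses pre-set by titration on wild-type CD33, duplicate readings with background fluorescence subtracted, mutants made by site-directed alanine substitution (alanine changed to serine).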
Experimental: as §1, §2

The target of assay [30] is T2, human CD33 V361A (human, UniProt P20138 18-364).
T2 construct: Alanine-scan mutant clone of CD33 transiently transfected into HEK293-T cells
The description is as above.
Experimental: as §1, §2

The target in assay [31] is T3, human CD33 T354A (human, UniProt P20138 18-364).
T3 construct: Alanine-scan mutant clone of CD33 transiently transfected into HEK293-T cells
Described as above.
Experimental: as §1, §2

The target in assay [32] is T4, human CD33 G347A (human, UniProt P20138 18-364).
T4 construct: Alanine-scan mutant clone of CD33 transiently transfected into HEK293-T cells
Described as above.
Experimental: as §1, §2

Assay [33] addresses T5, human CD33 S351A (human, UniProt P20138 18-364).
T5 construct: Alanine-scan mutant clone of CD33 transiently transfected into HEK293-T cells
Described as above.
Experimental: as §1, §2

The target in assay [34] is T6, human CD33 R362A (human, UniProt P20138 18-364).
T6 construct: Alanine-scan mutant clone of CD33 transiently transfected into HEK293-T cells
The description is as above.
Experimental: as §1, §2

Assay [35] has as its target T7, human CD33 P350A (human, UniProt P20138 18-364).
T7 construct: Alanine-scan mutant clone of CD33 transiently transfected into HEK293-T cells
Described as above.
Experimental: as §1, §2

Assay [36] has as its target T8, human CD33 M348A (human, UniProt P20138 18-364).
T8 construct: Alanine-scan mutant clone of CD33 transiently transfected into HEK293-T cells
Described as above.
Experimental: as §1, §2

Assay [37] deals with T9, human CD33 T356A (human, UniProt P20138 18-364).
T9 construct: Alanine-scan mutant clone of CD33 transiently transfected into HEK293-T cells
The assay is described as above.
Experimental: as §1, §2

Assay [38] has as its target T10, human CD33 D353A (human, UniProt P20138 18-364).
T10 construct: Alanine-scan mutant clone of CD33 transiently transfected into HEK293-T cells
The assay is described as above.
Experimental: as §1, §2

Assay [39] addresses T11, human CD33 E357A (human, UniProt P20138 18-364).
T11 construct: Alanine-scan mutant clone of CD33 transiently transfected into HEK293-T cells
The description is as above.
Experimental: as §1, §2

Assay [40] addresses T12, human CD33 N349A (human, UniProt P20138 18-364).
T12 construct: Alanine-scan mutant clone of CD33 transiently transfected into HEK293-T cells
Described as above.
Experimental: as §1, §2

The target in assay [41] is T13, human CD33 T363A (human, UniProt P20138 18-364).
T13 construct: Alanine-scan mutant clone of CD33 transiently transfected into HEK293-T cells
Described as above.
Experimental: as §1, §2

Assay [42] deals with T14, human CD33 H346A (human, UniProt P20138 18-364).
T14 construct: Alanine-scan mutant clone of CD33 transiently transfected into HEK293-T cells
The description is as above.
Experimental: as §1, §2

For assay [43], the target named is T15, human CD33 E360A (human, UniProt P20138 18-364).
T15 construct: Alanine-scan mutant clone of CD33 transiently transfected into HEK293-T cells
The description is as above.
Experimental: as §1, §2

Assay [44] deals with T16, human CD33 Y358A (human, UniProt P20138 18-364).
T16 construct: Alanine-scan mutant clone of CD33 transiently transfected into HEK293-T cells
The assay is described as above.
Experimental: as §1, §2

Assay [45] has as its target T17, human CD33 S359A (human, UniProt P20138 18-364).
T17 construct: Alanine-scan mutant clone of CD33 transiently transfected into HEK293-T cells
The description is as above.
Experimental: as §1, §2

The target in assay [46] is T18, human CD33 S355A (human, UniProt P20138 18-364).
T18 construct: Alanine-scan mutant clone of CD33 transiently transfected into HEK293-T cells
The description is as above.
Experimental: as §1, §2

The target in assay [47] is T19, human CD33 K352A (human, UniProt P20138 18-364).
T19 construct: Alanine-scan mutant clone of CD33 transiently transfected into HEK293-T cells
Described as above.
Experimental: as §1, §2

For assay [48], the target named is T20, human wild-type CD33 (human, UniProt P20138 18-364).
T20 construct: also called SIGLEC3; P67
Kind of assay: flow cytometry, IgG at 0.50 ug/ml on HEK293-T cells expressing CD33 against vector alone.
Experimental: Binding of the antibodies to the transfected cells and the optimal assay conditions were evaluated in 384-well format. Detection of cellular expression was measured via high-throughput flow cytometry. Serial dilutions of each antibody were tested for immunoreactivity against cells expressing CD33 or vector alone. The optimal screening concentration for each antibody was determined based on the raw signal values and signal-to-background calculations. Each point represents the mean of four replicates.

T11 sequence (P20138 18-364 E357A limits assumed): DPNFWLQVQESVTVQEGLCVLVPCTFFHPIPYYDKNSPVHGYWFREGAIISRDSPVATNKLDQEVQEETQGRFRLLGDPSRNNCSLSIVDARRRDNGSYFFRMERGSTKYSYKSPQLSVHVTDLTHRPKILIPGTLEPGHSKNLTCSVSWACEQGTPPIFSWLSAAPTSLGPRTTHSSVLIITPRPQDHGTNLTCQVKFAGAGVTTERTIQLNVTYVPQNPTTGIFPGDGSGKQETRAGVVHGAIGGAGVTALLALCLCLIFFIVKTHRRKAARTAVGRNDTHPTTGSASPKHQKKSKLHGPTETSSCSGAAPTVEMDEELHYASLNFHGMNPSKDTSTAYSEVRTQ
T1 sequence (P20138 18-364 Q364A limits assumed): as the sequence (P20138 18-364 E357A limits assumed) above, with A340E, Q347A counted along it
T15 sequence (P20138 18-364 E360A limits assumed): as the sequence (P20138 18-364 E357A limits assumed) above, with A340E, E343A counted along it
T10 sequence (P20138 18-364 D353A limits assumed): as the sequence (P20138 18-364 E357A limits assumed) above, with D336A, A340E counted along it
T3 sequence (P20138 18-364 T354A limits assumed): as the sequence (P20138 18-364 E357A limits assumed) above, with T337A, A340E counted along it
T18 sequence (P20138 18-364 S355A limits assumed): as the sequence (P20138 18-364 E357A limits assumed) above, with S338A, A340E counted along it
T8 sequence (P20138 18-364 M348A limits assumed): as the sequence (P20138 18-364 E357A limits assumed) above, with M331A, A340E counted along it
T17 sequence (P20138 18-364 S359A limits assumed): as the sequence (P20138 18-364 E357A limits assumed) above, with A340E, S342A counted along it
T7 sequence (P20138 18-364 P350A limits assumed): as the sequence (P20138 18-364 E357A limits assumed) above, with P333A, A340E counted along it
T16 sequence (P20138 18-364 Y358A limits assumed): as the sequence (P20138 18-364 E357A limits assumed) above, with A340E, Y341A counted along it
T12 sequence (P20138 18-364 N349A limits assumed): as the sequence (P20138 18-364 E357A limits assumed) above, with N332A, A340E counted along it
T2 sequence (P20138 18-364 V361A limits assumed): as the sequence (P20138 18-364 E357A limits assumed) above, with A340E, V344A counted along it
T9 sequence (P20138 18-364 T356A limits assumed): as the sequence (P20138 18-364 E357A limits assumed) above, with T339A, A340E counted along it
T5 sequence (P20138 18-364 S351A limits assumed): as the sequence (P20138 18-364 E357A limits assumed) above, with S334A, A340E counted along it

B1: Refmab #5 (antibody, V domains shown)
VH: QVQLVQSGAEVKKPGASVKVSCKASGYTFTNYDINWVRQAPGQGLEWIGWIYPGDGSTKYNEKFKAKATLTADTSTSTAYMELRSLRSDDTAVYYCASGYEDAMDYWGQGTTVTVSS
VL: DIQMTQSPSSLSASVGDRVTINCKASQDINSYLSWFQQKPGKAPKTLIYRANRLVDGVPSRFSGSGSGQDYTLTISSLQPEDFATYYCLQYDEFPLTFGGGTKVEIK
notes: The alanine scan used IgG or Fab
Consider B1, for which the “Mean % WT Binding” value in assay [1] was 104 % of WT; in assay [2] it was 197 % of WT; in assay [3], 105 % of WT; in assay [4] it was 115 % of WT; in assay [5] it was 58.4 % of WT; in assay [6], 87.8 % of WT. Besides, the “Mean % WT Binding” value in [7] is 101 % of WT; in assay [8], 180 % of WT; in [9] it was 117 % of WT; in assay [10] it was 148 % of WT; in [11], 122 % of WT; in assay [12], 94.4 % of WT. In addition, the “Mean % WT Binding” value in [13] was 139 % of WT; in assay [14], 122 % of WT; in [15] it was 137 % of WT; in assay [16], 30.9 % of WT; in [17], 118 % of WT; in assay [18], 148 % of WT. Besides, the “Mean % WT Binding” value was 116 % of WT in [19]; 114 % of WT in assay [20]; 186 % of WT in [21]; 112 % of WT in assay [22]; 112 % of WT in [23]; 106 % of WT in assay [24]. For the same molecule, the “Mean % WT Binding” value in assay [25] is 114 % of WT; in [26] it was 115 % of WT; in assay [27], 118 % of WT; in assay [28], 143 % of WT.

B2: Refmab #5 (antibody, V domains shown)
VH: B1 VH
VL: B1 VL
notes: Full-length format is human IgG1 Fc silent (PG-LALA); The alanine scan used IgG or Fab
As to B2, the “Mean % WT Binding” value in assay [29] worked out at 107 % WT binding; in assay [30] it was 84.5 % WT binding; in [31] it was 84.7 % WT binding; in assay [32], 104 % WT binding; in [33] it was 88.9 % WT binding; in [34], 101 % WT binding. The “Mean % WT Binding” value in [35] was 93.8 % WT binding; in assay [36], 92.3 % WT binding; in assay [37], 89.3 % WT binding; in assay [38], 74.6 % WT binding; in assay [39], 75.3 % WT binding; in assay [40], 84.9 % WT binding. In addition, the “Mean % WT Binding” value was found to be 90.1 % WT binding in assay [41]; 114 % WT binding in assay [42]; 107 % WT binding in assay [43]; 97.9 % WT binding in [44]; 87.2 % WT binding in assay [45]; 126 % WT binding in assay [46]. The “Mean % WT Binding” value in assay [47] was found to be 112 % WT binding.

B3: Refmab #6 (antibody, V domains shown)
VH: QVQLQQPGAEVVKPGASVKMSCKASGYTFTSYYIHWIKQTPGQGLEWVGVIYPGNDDISYNQKFQGKATLTADKSSTTAYMQLSSLTSEDSAVYYCAREVRLRYFDVWGQGTTVTVSS
VL: EIVLTQSPGSLAVSPGERVTMSCKSSQSVFFSSSQKNYLAWYQQIPGQSPRLLIYWASTRESGVPDRFTGSGSGTDFTLTISSVQPEDLAIYYCHQYLSSRTFGQGTKLEIK
notes: as for B2
On to B3, for which the “Mean % WT Binding” value in [29] is 94.4 % WT binding; in assay [30], 76 % WT binding; in assay [31] it was 99.3 % WT binding; in [32] it was 95.2 % WT binding; in assay [33], 112 % WT binding; in assay [34], 107 % WT binding. Moreover, the “Mean % WT Binding” value was determined as 108 % WT binding in [35]; 101 % WT binding in assay [36]; 99.5 % WT binding in assay [37]; 92.1 % WT binding in assay [38]; 91.2 % WT binding in assay [39]; 91 % WT binding in [40]. Besides, the “Mean % WT Binding” value in assay [41] was 105 % WT binding; in [42], 104 % WT binding; in assay [43] it was 93.5 % WT binding; in assay [44], 92 % WT binding; in assay [45] it was 82.5 % WT binding; in [46], 98.9 % WT binding. In addition, in [47], the “Mean % WT Binding” value stood at 94.1 % WT binding.

B4: Refmab #2 (antibody, human IgG1, V domains shown)
VH: QVQLVQSGAEVKKPGSSVKVSCKASGGTFSDYAISWVRQAPGQGLEWMGRIIPILGVADYAQKFQGRVTITADKSTRTAYMELSSLRSEDTAVYYCARNWADAFDIWGQGTMVTVSS
VL: DIQLTQSPSSLSASVGDRVTITCRASQGISSVLAWYQQKPGKAPKLLIYDASSLESGVPSRFSGSGSGTDFTLTISSLQPEDFATYYCQQFDSSITFGQGTKLEIK
notes: Full-length MAb format, human IgG1 Fc silent (PG-LALA)
Turning to B4, the “Signal:Background” value in assay [48] is 59 signal:background ratio.
